Experiment: soluble fraction after stress (log2 fold change); higher = more stays soluble; pooled small domains, quantitative proteomics
Details: stress: pH 4
Method in brief: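 After pH 4 stress, pooled custom libraries of small protein domains were quantified with high-throughput quantitative proteomics. Aggregation propensity is taken from the fold change in each domain's soluble amount following the acid stress. The scale is log2, where higher values mean more stayed soluble.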
With “HMQNGNLVDVYLNWRGKYYAIKMFFPNSKMPRRSDVQDQIVKVYPDARVQSFQVSKYVPGQPFL” the “soluble fraction (log2)” value was -0.431. For “HMQNLSELAYVNLRDALMQGQMKPGEELPLRPISRSFGISATPMREALLRLVTESALEMDSRGRISVP”, the “soluble fraction (log2)” value was -0.183. For “HMQNPYDTLGVSRDSTDAEIKKAYRKLAMEHHPDKGGDSQRFAEINNAYDNIKDMSSRQNFENDPSNFQ”, the “soluble fraction (log2)” value was 0.186. In the case of “HMQNVFARKNLTSVSVDKLGEEEILLFKQSFESKNLTSSEALRDLSKKGMSEAELRKLKVRLTQL”, the “soluble fraction (log2)” value is reported as -0.177. For “HMQNWFADPKFEMFEDYGDAQSFYDTETKNIYVVMAEYGQKGSNTIQEITPDSEEYIPNYEKYKEYMENK”, the “soluble fraction (log2)” value was -1.42. For “HMQNYLEFIGNELKALTSIPSPSGYTKDVAAYLMKTLSDMGYEPQLSNKGNVFVTIGGEGNPLVLAAHVD”, the “soluble fraction (log2)” value was -0.436. With “HMQNYLEVLRLHELGMGQRKIAQQVHTSRDTIRKIIAIAENQGLNYSNLIGKTDNELSKVFG” the “soluble fraction (log2)” value was 0.0958. In the case of “HMQPAGEGAILRYLSSGAVKGIGPVMAREIVRRFGTDTFRVMEQEPEKLLKVKGITEQRLQTIMESYQD”, the “soluble fraction (log2)” value is reported as 0.145. In the case of “HMQPDPAFVAWVDANPWYKENRTLRALVHDYAEEVKRQEPALIGTAFLDRVKQLVQSEHPELFD”, the “soluble fraction (log2)” value is reported as -0.502. In the case of “HMQPETIEDATNLYLEAARATLQLIEQNNVIARDVKRLLEHLDNDMARIETLLAEMLSRRDHWLRHIH”, the “soluble fraction (log2)” value is reported as 0.185. With “HMQPIQPNQAKYLDGLSSKYKGKGNHSQAAQLTALRDALNAGDHAKAREIYDKLDYEPQAEAAH” the “soluble fraction (log2)” value was 0.105. For “HMQPNVTRERILAAAMTVFAQKGWQKTSLDEVAAAAGMTKGAIYWHFRNKNDLFFALLDARLQRD”, the “soluble fraction (log2)” value was -1.08. For “HMQQAVTMQKPGRLLRNADGNGGAVRDLDVGMMLYPTGNRSELMWEVDDELGNRGWVNSTLFGLS”, the “soluble fraction (log2)” value was -0.585. For “HMQQDGSSSLGENMLNQELQARGVVPSEIPQEVWERVIQEAGKKSKREIYADIGLGRSLAAGFAQRLAA”, the “soluble fraction (log2)” value was -0.0576. For “HMQQDVLKLKSGGNYKGEYINIESAYVLFKPEGGNATQRIKVNEIQMLKLADGTEVIFGGRVK”, the “soluble fraction (log2)” value was 0.297. In the case of “HMQQEPNFYIVDGNTNQIVDRYYAPDSNVAHQYLGQWRQQHDPQETGNYRYGRLSSETEERYRNLAA”, the “soluble fraction (log2)” value is reported as 0.188. With “HMQQFGANVRLIRKARQMSIKQLSELSGVSQTMISEVERGLKIPTIDVAGKIAAALGIDLTNLMG” the “soluble fraction (log2)” value was 0.0733. With “HMQQIQILPDGKIKLPDLSGTNMREAIEILHKGGLRMKPYGSGNAYQQKPAAGETVASGTTVEVLSL” the “soluble fraction (log2)” value was 0.0974. With “HMQQLAEQIPTDRPYISIAEAVVLFGISRDTIYRQIRKGNIPAVNLGERLTRISRIHIEAMFPKV” the “soluble fraction (log2)” value was -0.282. For “HMQQNYREMHKVKKGETLFGIARRYEITVDQLIKANPDMNAVGYELKKGDYIFIPYPDGQKP”, the “soluble fraction (log2)” value was -0.116. With “HMQRAEQLPAELAAVFRAETEAWGFFERQPPGYQRVAIHWVASAKQEATRLRRLAKLIEESAAGRR” the “soluble fraction (log2)” value was -1.43. In the case of “HMQRDTIAISAIPTAIKTYLSSTYPTDTLVHAFVNKDQSIVVISKNIDFYATSFSTANAFIKRIQLPA”, the “soluble fraction (log2)” value is reported as 0.156. In the case of “HMQRFIHITVSDVHQATRLLEEEMQLTNYSVAENNAIKIFEFTYEPQEINHLFGKNGIEVSSLFIGS”, the “soluble fraction (log2)” value is reported as -0.345. With “HMQRNLILKLDTDQPEIYKKLESIFVEINGLLVPFFIEKIIWSKQDSLNILFKNSSEALVEQLIGKNVFLP” the “soluble fraction (log2)” value was 0.0162. For “HMQRSVNYSELHEIKERVFDALYSSPMSMPDLLAWLKGDEEHTISVIRLMQDNGDIEMGEDGRLAVV”, the “soluble fraction (log2)” value was -0.629. With “HMQSISLEEAKSAALDDAQLGIDEVEFLKTERNTDGDTSYYDIQFLVNGTIYKYQINTETGAILHVDYEA” the “soluble fraction (log2)” value was -0.511. With “HMQSITAGDKVRVKNYTVSGGKKRGKVYGGAGTFVVYYEKYDVISVTGDRVVIGIGKAVTAAVHIDDLEK” the “soluble fraction (log2)” value was -0.932. For “HMQSKSEINELPKSIHMAFSPKNFELFIDNLKINEIDFSNWKGELNTIQERVDGQRQIWIQDPQGYWIEIN”, the “soluble fraction (log2)” value was -0.335. For “HMQSLIVPVPKPEDDPVYKDGIKQDPVEVVSIWLGRDYLNMILNLKVSTGKGHTFGIVEDVS”, the “soluble fraction (log2)” value was -0.383. In the case of “HMQSNDTAEIEAVVKEIMAANERVVNDYRSGNTKVVSFFVGQVMKATKGKANPKVVNEVLAKLLK”, the “soluble fraction (log2)” value is reported as 0.169. With “HMQSVPELDQQFKIAIENNDFIKLAQLKEQGYHPSKEVMQSLSNTTPNNTIIAVQKIFGLKA” the “soluble fraction (log2)” value was -0.185. For “HMQSVSANSVQKQLADIIDGEDKTHPLSDRELTEKLVAQGVQISRRTVAKYREAMGIPGASGRKQ”, the “soluble fraction (log2)” value was 0.107. With “HMQTAAANPSPESILQAREAAGLSQSEAGALIYSGLRSWQHWEWGTRRMHPGLFELFLKKTGQI” the “soluble fraction (log2)” value was -1.02. In the case of “HMQTKMVYSDLVNSIKSEQVSSMLVSGNTVTVTLTNGDKAKVKIPSLDTLQADVGKEMNDQMDKGTLKQE”, the “soluble fraction (log2)” value is reported as -0.123. With “HMQTKNYVYFNNTENWSTVNVYVWSSKDSTYMSWPGKAMESIGNNTYRFELPNGAEYAIFNNGSAQTVD” the “soluble fraction (log2)” value was -0.185. For “HMQTKSDMVYHRVREDIVNGVFAPGERLLISAVAKQYGVSEIPVREAFRVLSQEGFLKTRPNSGFVVS”, the “soluble fraction (log2)” value was -0.294. With “HMQTMTAGERREAILRELEQAQGPVSASALAKRFHVSRQAVVGDVAMLRALNSPIAATPRGYVLTR” the “soluble fraction (log2)” value was 0.0633. With “HMQTMTDDQVMQYVISQQEKGATQQDIVSKLLQKGVTVDQMRRIRKKYEAQQSQPGALDLTGSS” the “soluble fraction (log2)” value was -0.0786.
